assay: soluble on expression in E. coli; label from the status in PepcDB or PDB records

Sequence | soluble on expression in E. coli
MGSDKIHHHHHHMLDENEDIHPLFAGAPATTEFKKLRKRIVRYTREAIEQYGMVERRADGSTPKWLVCLSGGKDSYTLLAVLYELKWRGLLPVDLLACNLDQGQPGFPSTVLPEFLDRMGVPNRIEYQDTYSVVVDKVPQGRTYCALCSRLRRGNLYRIAREEGCSAVVLGHHRDDILETFFMNLFHGGRLATMPPKLVNEEGDLFVFRPLAHVAEADCEKFARAMNYPIIPCDLCGSQDGLQRQQVKQILDGWEKNRPGRRQVMFRALMNARPSHLLDPKLFDFQGLELGSREKGENFGEIPLLR | not soluble
MRDRTCVVPGCGATRGLHAHHIRHWQDGGATELANLVLVCPYHHRAHHRGLITITLEHHHHHH | not soluble
MIKILDASAFIHGYNPSIEDGEHYTTNGIVSEVVSKEDIVKLAIEYGKLKILDPKPETIEKVVKTSIETGDTISNNDIEILALAIDLGGTLYTDDYGLQNVSKKLKINYENIVSAGSKDDFVWKKICKGCKKMYPINYLDEECEVCGSPLYRKMVKNRLKKGKKFYDKKKKPKKLFLEHHHHHH | soluble
ETTSSIGEKVWDDKDNQDGKRPEKVSVNLLANGEKVKTLDVTSETNWKYEFKDLPKYDEGKKIEYTVTEDHVKDYTTDINGTTITNKYTPGETSATVTKNWDDNNNQDGKRPTEIKVELYQDGKATGKTAILNESNNWTHTWTGLDEKAKGQQVKYTVEELTKVKGYTTHVDNNDMGNLITTNKYTPETTSSIGEKVWDDKDNQDGKRPEKVSVNLLANGEKVKTLDVTSETNWKYEFKDLPKYDEGKKIEYTVTEDHVKDYTTDINGTTITNKYTPGETSATVTKNWDDNNNQDGKRPTEIKVELYQDGKATGKTAILNESNNWTHTWTGLDEKAKGQQVKYTVEELTKVKGYTTHVDNNDMGNLITTNKYT | soluble
MAHHHHHHMHSSPSKKKDLSNGACPAKEKEASKRKQSFNDVELEIDDDIITHLSSRICNKNVTHKILKINNLIDDQMHDYIANGRASEISESNDESDAHEGVERAHLNLRNGYAGCQHGDESSSNTISNDLPERKAISSEQVPTYELNKEVQGKSKAKGKGKGKGELLSDDPHLEEPLAEGHTHFDRIKMMNLLGENTIVYNSRDDQNNVLFLCYDEKSEQCDVCDRYRKNYMSNMHPSSCVPLRGGAAMKGDAAINGNAPINGVAATNGAAAINGTAAIDALSDYFFVLGSTSNSRKYILKQSSLDFLSVRIHIDEKKIGCRKSHDPLTLTANIAVGKGLKLLNMIKTDSELSKQIAELSKGKKVVLLVGDEVIYCNNKIYEKPKNEKEASNFLKSYNNSKCYSYSSITLIELETEKIITGIDESIINVYDMDDSVVKKILDDSSIYFCAGALKIENTHMHRYIKVIKGNIDSIFGLSLNLLFHLVNFL | not soluble
MGSDKIHHHHHHAEDMVKPIENDKDAPGTVQDVKTESLPGAVKFTYTLPSDPDLLYVLAKYTNKTGKVMEFRSSFYTNSVTVEGFGDTDTYKVELYTVDRSENRSQPQIVEVVPLTPPILSCYESLSMVSDFGGMTFEMDNKFKSDLAIYVCTPDELGDMVLAETFYSAREEIVYSVRGYDAVPRRFGIFLQDKYGNETDTLFTELTPIYERELDKTKFREMYLQNDSRVDSYDGKMEYVWNGRISKDGDSGGVGLHTGTGTKDGPAVFTFDLGVLAKLSRFALWAIQDEKHFYNDMSPRRYEVWGCATEPNPDGSWDQWVKLLDMENVKPSGSPIGILTEDDIEAAKIGDQANVPLDMPRVRYIRIKCLKNWSNNYNICFTELTFWGNDNEE | not soluble
MSEPAVVSILDTDLYKLTMLQAVLEHYPDAQVSYKYTNRSPKMALNQEAYNWLREQIRGLRNLHLLPEEEQWLRKNCPYLKESFYEFMHEFEFDPENSISLNYDSETKDLSIFIHGLWKNTIFYEIPLLALVSESYFKFVDKDWSPEGQFEKAYEKGKRLIRAGCAFTDFGTRRRRDPHTQEIVLQGLMKAQEDFKGPGSFLGTSNVYFAAKYNLNVSGTVAHEWYMGIAAITQNYKQANRIASLKWVQTFGTSLLIALTDTFSTDVFLKSFTANSADDLANVFHGVRQDSGCAEEYIEKVVKHYKSIGVDPSTKVIVHSDALNVDRCIELYKYCEKCGIKSAFGIGTNLTSDFQKVSNPSEVSKPMNIVIKLFSAEGTKAVKISDDIMKNTGDRDAVIQAKHQLCLPIA | soluble
MAHHHHHHMSEAAALESIMRPPSPELQRRLFVPTPSLHASAETARQHRAERQSALLAERATAYTCHPAILPVSREMAASERRRNGWMQLPVGDVLMERHKRVEGHLEEKRQQEVARFSFRPTISARARTMQSSRPVVERLYSGTADAGTDTATFTDVTNLRSSSGEKTKTASMATYQRLYQDAVTRRAHDQMQEKLARVRSKNEFCPCTDSVSGLIASKRGDTTRERLLRPKAALDVARDVYPQETFAPRINTSTRFERVPLSARAAIWQRRRSERLHHAVVARCEVEMRECTFHPRTRRGLTALSQAHARATADSYTGPLASIMSSAEELLRRVDLEASAPLPESGRCAPLLDDDGKLPGTVPVDILAVLHEAEHVSEALRLLPDTNLDLDLSQHTSLG | not soluble
MNQAIQFPDREEWDENKKCVCFPALVNGMQLTCAISGESLAYRFTGDTPEQWLASFRQHRWDLEEEAENLIQEQSEDDQGWVWLP | not soluble
MSLIDYQEVLSRYRPTQEEENKLKIISDDIIRKINSICRSRGLRAEAVIVGSYAKGTNLRDGDLDIFIAFDRDYPEEIINTEGLHIGHAVIPNGREKYAEHPYVSGEIGGVKIDVVPCYKMSFGDKKISAVDRTLLHTEYVNGHLDEKGRDEVRLLKIFTKSIGVYGAEARTFGFSGYLCELLVIRFGSFENVIRYFSKAKGRVLIDLDERFRDPMVLIDPVDPDRNVASPVSLESLSRMKIASKMFLSSPDEGFFQIEHNGKNVQYHDRGTCIMIYSLPKPDLTDDVIYPQVYRFRSVLQKIMESHEIRVISSEIDVSDRIYVLIETPACAEERIRVHTGPPVDTDNAVDFVNSWKARDRSRGPYIVADRLYVDVFTGQRSIEDIVRQEIFNYSIGKNLDRFKKSMEIMKFNVGMKSLPVLDKFFGADVFRKEGHHHHHH | soluble
MGSDKIHHHHHHMDEIEKSLQNWGQQLENVHLPRWHELPDIELYMDQVITLIEKYLSPLITLEKHTLLTSSMVNNYVKHGLIPAPVKKRYNQKHLAFLIAITLLKQVLTLPEIKQGILFQGATVGIREAYNLFCQEQERAIYVIAAQAQEKEVQAKSQEPMGIEYLAVKAATMSFATKMFSEKVIELEQEYLKEMDEMTHE | not soluble
MGSDKIHHHHHHMKTEITLLKGETVMVEPKEFLKAGQAFHGHKCPAMPMGLRVGAAAMNKLGVERSKDGQLLDLVELGDGHCATCFADGIQMITGCTFGKGNIKKLHYGKWGVTLIDTQTGRAVRVTPKAEAMLANKKSEFFTEYRMKHIPASKVPAEVVEPLVEKVMNAPDDMLLNIGDVFDYEVPPKVESFSGFVCDICGEMVVEGYGRPLDDKKVCQPCYEKAQREH | not soluble
MSEADQALVGPKADEPSPPAEEKDEGGGKEAAADAAPGPSASFRLMVTRREPAVKLQYAVSGLEPLSWSEDHRVSVSTARSVAVLELICDVHNPGQDLVIHRTSVPAPLNSCLLKVGSKTEVAECKEKFASSKDPTISQTFMLDRMFNPEGKALPPMRGFKYTSWSPMGCDANGRCLLAALTMDNRLTVQVNLNRLQWVQLVDLTEIYGDRLYETSYRLSKNEAPEGNLGDFAEFQRRHSMQTPVRMEWSSICTTQQVKHNNECRDVSS | not soluble
MCSALVVAAPHSGSGKTTVTAAIARYHRVQGRKVTVFKVGPDFIDPMILRQASGELVYQLDLWLVGEQGCRALLHRAAMDSDLILIEGVMGLFDGTPSSADLAKYFNIPVLGVIDAKAMAQTFAAVTFGLAKFCEDLPFSGVIANRVNTERHAELLSVSLPKAFRFYGRIPKDDTITLPERHLGLVQAQELSDIDVQLDKAASHIANTGLTELPSQVEFFAQEDDNQENIIEGALAGTRIIIIRDSAFSFIYAANIAFLTQTGAELIYCSAMADVHLPDGDILYIPGGYPELYAEQLMNNVTFLSDIRAFSASNKPIVAECGGMLYLLEQLTDMEGQQFSMLGLMPGKATMQKKLAAIGSQWVPLPSFADAAEDSADNIMRGHSFHYSCAEIELEPSSQTTHHPSERAGEYVYQHNNILASYMHWYFPSNPSLTLRIFDKARYLLEHHHHHH | soluble
MSFIAYPCAVPTQRQVPMSPPTTPRILMKLCPIMEIPIIGGPRQNGTYNVFIFDLKIRKFIPHRCSSCAVKILEDHLSPMYASGSVIFMRNEVTQEVEQYVYSFETGGFQQVDYPELVYSAEKFTESSFIVMIENSDGKKVLIERGGNEAVRKLEYRLGKCVEMPKVEVQLLAAEEFDDADPWSDNDSLSSEHLDYNETLPAFKTTFCQDFQMYVLYIITSRGHYEKYIYNQSTSQFEILDCEKCPDTTREVDLLPKYAEFCEEIQAYVIHVFNSFTDRMEQYVFDSKIQGFVEVNQPELKYDSSKDQDPTSSIFFVLKGTTVIMRGAQGRLKKEVYCSIKKHFVEVPNSVIKSFDTQFMEKKQKMDKKKKAKKIKKSKKKASKESQELDVLVEKIRLCDDPFSDGPSCSTSPDIPEDAPDDGMSILKQKFVESLTTLYGGSLPPYVQKELEQI | not soluble
MSQGFKTEADVMRNTAHRVDDTNQEVSAELSRLRSIVDGVRASWEGTAQVSFDNLMQRWDASAKGLQDALQSISDNIRGNATSFENVEADNQSAFSAVGGQGLAL | not soluble
MGSDKIHHHHHHVLIWWRGKFRRADEISLDFSLFEKSLQGAVYETLRTYSRAPFAAYKHYTRLKRSADFFNLPLSLSFDEFTKVLKAGADEFKQEVRIKVYLFPDSGEVLFVFSPLNIPDLETGVEVKISNVRRIPDLSTPPALKITGRTDIVLARREIVDCYDVILLGLNGQVCEGSFSNVFLVKEGKLITPSLDSGILDGITRENVIKLAKSLEIPVEERVVWVWELFEADEMFLTHTSAGVVPVRRLNEHSFFEEEPGPVTATLMENFEPFVLNLEENWVGI | soluble
MSDAATRRLMKELAQLKSEAPEGLLVDNTSTSNDLKQWKIGVVGAEGTLYAGEVFMLQFTFGPQYPFNSPEVMFVGETIPAHPHIYSNGHICLSILSDDWTPALSVQSVCLSILSMLSSSKEKKHPIDDAIYVRTCSKNPSKTRWWFHDDSV | not soluble
MGSDKIHHHHHHMEVLRTENLKSYYILDIFGKKRVVKAVDDVNISIMENEIYGIAGESGCGKSTLLRALFAAIEPPQRIVGGKVLYRENGKEVDVYSLSDEERRRLRWSFISYVPQGSMSVLNPVVKIKETFKDFIESHTTGKTKEEAYEMAKEHIKELGLPIEILNAYPHQLSGGMRQRVTIALATVLSPKVIIADEPTTALDVVTQRGVVQLLKEIQSSRQNTIILVTHDMGVHANVTDRIAIMYAGKIIEEGKTEEIFENPMHPYTKYLIYSLPKFGDKGRRESAPGSPPSLADLPPGCSFHPRCPHAFDRCKKEVPPLKEYLPGHRVACWLVEEGKNAAS | not soluble
MIIVHLCGGLGNQMFQYAAGLAAAHRIGSEVKFDTHWFDATCLHQGLELRRVFGLELPEPSSKDLRKVLGACVHPAVRRLLAGHFLHGLRPKSLVIQPHFHYWTGFEHLPDNVYLEGYWQSERYFSNIADIIRQQFRFVEPLDPHNAALMDEMQSGVSVSLHIRRGDYFNNPQMRRVHGVDLSEYYPAAVATMIEKTNAERFYVFSDDPQWVLEHLKLPVSYTVVDHNRGAASYRDMQLMSACRHHIIANSTFSWWGAWLNPRPDKVVIAPRHWFNVDVFDTRDLYCPGWIVLLEHHHHHH | not soluble
